Two molecules from patent CN113512111A (BEIJING MABWORKS BIOTECH CO LTD, dated 2021) can be followed below.

One experiment addresses FcγRIIIa(158V) (UniProt P08637 17-208).
A further experiment has as its target C1q蛋白 (UniProt P02745 23-245; P02746 28-253; P02747 29-245).
The target in experiment [1] is T1, 埃博拉病毒表面抗原GP蛋白 (soluble GP used as the analyte in BIAcore) (埃博拉病毒 (Ebola virus), UniProt Q05320 33-650).
T1 sequence: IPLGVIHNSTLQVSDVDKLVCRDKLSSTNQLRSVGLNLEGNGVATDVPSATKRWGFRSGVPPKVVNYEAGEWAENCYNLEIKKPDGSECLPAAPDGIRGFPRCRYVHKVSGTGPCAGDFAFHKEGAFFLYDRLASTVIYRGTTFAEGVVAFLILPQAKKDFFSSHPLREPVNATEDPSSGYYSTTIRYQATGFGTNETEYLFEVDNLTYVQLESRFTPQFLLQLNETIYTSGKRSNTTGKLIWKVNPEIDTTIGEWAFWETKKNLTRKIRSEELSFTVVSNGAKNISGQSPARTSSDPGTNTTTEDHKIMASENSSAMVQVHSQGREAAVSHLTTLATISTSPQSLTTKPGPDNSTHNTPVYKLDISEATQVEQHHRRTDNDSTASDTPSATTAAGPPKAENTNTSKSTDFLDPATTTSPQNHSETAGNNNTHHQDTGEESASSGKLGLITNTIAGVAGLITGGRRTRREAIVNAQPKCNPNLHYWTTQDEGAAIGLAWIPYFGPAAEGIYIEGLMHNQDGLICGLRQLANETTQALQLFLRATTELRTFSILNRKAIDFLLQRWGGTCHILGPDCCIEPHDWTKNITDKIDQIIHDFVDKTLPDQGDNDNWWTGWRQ

The target in experiment [2] is T2, 埃博拉GP蛋白 on 埃博拉假病毒(扎伊尔型) (HIV-backbone luciferase pseudovirus) (埃博拉病毒(扎伊尔型) (Zaire ebolavirus), UniProt Q05320 33-676).
T2 sequence: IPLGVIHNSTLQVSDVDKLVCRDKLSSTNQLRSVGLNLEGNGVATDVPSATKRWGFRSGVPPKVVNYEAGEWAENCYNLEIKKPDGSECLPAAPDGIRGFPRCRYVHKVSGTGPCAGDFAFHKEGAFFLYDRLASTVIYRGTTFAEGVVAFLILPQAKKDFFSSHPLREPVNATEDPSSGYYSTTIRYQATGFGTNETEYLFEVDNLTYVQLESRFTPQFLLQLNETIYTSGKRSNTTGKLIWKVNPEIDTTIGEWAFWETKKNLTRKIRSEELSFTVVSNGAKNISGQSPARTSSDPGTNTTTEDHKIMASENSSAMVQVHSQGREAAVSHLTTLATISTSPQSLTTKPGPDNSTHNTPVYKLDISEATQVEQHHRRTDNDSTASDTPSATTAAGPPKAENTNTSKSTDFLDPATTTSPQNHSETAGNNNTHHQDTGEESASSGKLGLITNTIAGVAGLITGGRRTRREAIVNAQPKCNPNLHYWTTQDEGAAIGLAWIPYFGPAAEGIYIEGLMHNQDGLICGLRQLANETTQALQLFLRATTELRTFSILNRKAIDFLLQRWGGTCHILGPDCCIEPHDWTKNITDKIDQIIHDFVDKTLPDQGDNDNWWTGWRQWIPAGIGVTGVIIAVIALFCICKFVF
The experiment can be described thus: cell-based or functional assay.

FcγRIIIa(158V), sequence (P08637 17-208 F176V limits assumed): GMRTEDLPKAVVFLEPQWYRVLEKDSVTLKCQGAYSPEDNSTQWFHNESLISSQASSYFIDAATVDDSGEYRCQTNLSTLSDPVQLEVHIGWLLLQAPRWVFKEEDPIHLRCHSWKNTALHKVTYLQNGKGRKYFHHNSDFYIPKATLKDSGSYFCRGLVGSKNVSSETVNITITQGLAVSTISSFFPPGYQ
C1q蛋白, sequence (P02745 23-245 limits assumed, chain 1 of 3): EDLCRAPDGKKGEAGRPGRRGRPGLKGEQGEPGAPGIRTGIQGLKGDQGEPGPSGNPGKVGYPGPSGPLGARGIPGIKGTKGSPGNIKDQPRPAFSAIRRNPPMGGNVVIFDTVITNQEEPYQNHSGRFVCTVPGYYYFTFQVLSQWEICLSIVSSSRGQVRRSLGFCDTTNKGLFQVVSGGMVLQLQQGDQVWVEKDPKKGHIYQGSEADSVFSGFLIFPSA
C1q蛋白, sequence (P02746 28-253 limits assumed, chain 2 of 3): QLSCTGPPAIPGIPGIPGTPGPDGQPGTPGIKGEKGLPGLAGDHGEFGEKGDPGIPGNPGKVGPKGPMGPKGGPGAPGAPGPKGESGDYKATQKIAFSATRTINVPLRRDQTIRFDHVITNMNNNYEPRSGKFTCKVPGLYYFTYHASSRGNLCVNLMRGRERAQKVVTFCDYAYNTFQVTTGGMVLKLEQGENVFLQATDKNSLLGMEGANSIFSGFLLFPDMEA
C1q蛋白, sequence (P02747 29-245 limits assumed, chain 3 of 3): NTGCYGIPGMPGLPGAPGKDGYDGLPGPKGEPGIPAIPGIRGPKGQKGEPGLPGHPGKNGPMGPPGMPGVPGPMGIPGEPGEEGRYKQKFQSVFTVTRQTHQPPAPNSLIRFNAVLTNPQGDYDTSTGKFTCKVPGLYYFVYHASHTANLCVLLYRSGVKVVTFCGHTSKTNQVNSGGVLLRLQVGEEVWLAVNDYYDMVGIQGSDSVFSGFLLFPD

B1: 抗体MIL77-1 (anti-Ebola virus glycoprotein monoclonal antibody, afucosylated, made in CHOK1-AF cells) (antibody)
heavy: not shown
light: DIQMTQSPASLSVSVGETVSITCRASENIYSSLAWYQQKQGKSPQLLVYSATILADGVPSRFSGSGSGTQYSLKINSLQSEDFGTYYCQHFWGTPYTFGGGTKLEIKRTVAAPSVFIFPPSDEQLKSGTASVVCLLNNFYPREAKVQWKVDNALQSGNSQESVTEQDSKDSTYSLSSTLTLSKADYEKHKVYACEVTHQGLSSPVTKSFNRGEC
For the molecule B1, the EC50 with FcγRIIIa(158V) is 0.062 to 0.064 µg/mL. This molecule also showed an EC50 with C1q蛋白 of 0.818 to 0.96 µg/mL. Also, the Kd in experiment [1] is 50.6 to 53.8 nM. In experiment [2], the “体外假病毒感染细胞中和活性 半数抑制浓度(IC50), HEK293细胞体系, batch M20141202” value stood at 4.59 µg/mL and the “体外假病毒感染细胞中和活性 半数抑制浓度(IC50), Huh7细胞体系, luciferase reporter” value worked out at 0.799 µg/mL.

B2: 抗体MIL77-2 (anti-Ebola virus glycoprotein monoclonal antibody, afucosylated, made in CHOK1-AF cells) (antibody)
heavy: not shown
light: DIQMTQSPASLSASVGETVTITCRASENIYSYLAWYQQKQGKSPQLLVYNAKTLIEGVPSRFSGSGSGTQFSLKINSLQPEDFGSYFCQHHFGTPFTFGSGTELEIKRTVAAPSVFIFPPSDEQLKSGTASVVCLLNNFYPREAKVQWKVDNALQSGNSQESVTEQDSKDSTYSLSSTLTLSKADYEKHKVYACEVTHQGLSSPVTKSFNRGEC
Molecule B2 displayed an EC50 in the experiment with FcγRIIIa(158V) of 0.054 to 0.073 µg/mL. Besides, the EC50 with C1q蛋白 lay in the range of 0.772 to 0.968 µg/mL. Moreover, the Kd in experiment [1] lay within 31.9 to 36.2 nM. In experiment [2], the “体外假病毒感染细胞中和活性 半数抑制浓度(IC50), HEK293细胞体系, batch M20141202” value worked out at 0.058 µg/mL; the “体外假病毒感染细胞中和活性 半数抑制浓度(IC50), HEK293细胞体系, batch M20141203” value was 0.023 µg/mL; the “体外假病毒感染细胞中和活性 半数抑制浓度(IC50), HEK293细胞体系, batch M20150101” value was 0.017 µg/mL; the “体外假病毒感染细胞中和活性 半数抑制浓度(IC50), Huh7细胞体系, luciferase reporter” value turned out to be 0.359 µg/mL.

Broadly, the EC50 is the concentration needed to bring the measured effect to its halfway point. Usually Kd stands for the free concentration of one partner at which half of the binding sites on the other are occupied at equilibrium, for simple one-to-one binding. Low readings indicate a tighter complex, high ones a looser complex.
